# T1: murine Jagged1 on 293T cells (mouse, UniProt Q9QXX0)
# T1 chain: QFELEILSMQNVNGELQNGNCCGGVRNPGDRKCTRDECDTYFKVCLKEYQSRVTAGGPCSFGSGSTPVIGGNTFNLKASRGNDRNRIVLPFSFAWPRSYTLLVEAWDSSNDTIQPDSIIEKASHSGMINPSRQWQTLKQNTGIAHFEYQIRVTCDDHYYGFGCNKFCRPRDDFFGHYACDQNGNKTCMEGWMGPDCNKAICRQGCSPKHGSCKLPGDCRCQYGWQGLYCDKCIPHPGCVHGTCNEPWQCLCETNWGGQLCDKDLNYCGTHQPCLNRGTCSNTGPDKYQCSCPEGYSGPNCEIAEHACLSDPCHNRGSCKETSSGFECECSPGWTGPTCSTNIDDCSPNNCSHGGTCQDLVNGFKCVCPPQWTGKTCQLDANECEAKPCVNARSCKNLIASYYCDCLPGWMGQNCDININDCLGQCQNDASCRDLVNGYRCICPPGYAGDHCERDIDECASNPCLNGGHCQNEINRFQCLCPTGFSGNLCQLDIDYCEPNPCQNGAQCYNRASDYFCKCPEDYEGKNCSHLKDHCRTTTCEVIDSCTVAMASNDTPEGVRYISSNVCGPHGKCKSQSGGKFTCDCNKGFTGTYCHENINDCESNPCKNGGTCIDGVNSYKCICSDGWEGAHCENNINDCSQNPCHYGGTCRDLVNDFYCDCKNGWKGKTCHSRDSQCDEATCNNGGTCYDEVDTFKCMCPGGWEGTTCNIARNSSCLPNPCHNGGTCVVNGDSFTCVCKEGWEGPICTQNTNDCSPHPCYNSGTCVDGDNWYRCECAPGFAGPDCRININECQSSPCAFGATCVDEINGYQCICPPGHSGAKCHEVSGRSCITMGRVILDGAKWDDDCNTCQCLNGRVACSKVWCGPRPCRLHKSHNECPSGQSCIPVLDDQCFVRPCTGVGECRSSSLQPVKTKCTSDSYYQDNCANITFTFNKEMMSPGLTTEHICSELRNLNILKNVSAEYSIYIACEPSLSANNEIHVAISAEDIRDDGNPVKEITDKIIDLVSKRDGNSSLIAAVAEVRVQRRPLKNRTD
# T2: murine DLL4-His (mouse, UniProt Q9JI71)
# T2 chain: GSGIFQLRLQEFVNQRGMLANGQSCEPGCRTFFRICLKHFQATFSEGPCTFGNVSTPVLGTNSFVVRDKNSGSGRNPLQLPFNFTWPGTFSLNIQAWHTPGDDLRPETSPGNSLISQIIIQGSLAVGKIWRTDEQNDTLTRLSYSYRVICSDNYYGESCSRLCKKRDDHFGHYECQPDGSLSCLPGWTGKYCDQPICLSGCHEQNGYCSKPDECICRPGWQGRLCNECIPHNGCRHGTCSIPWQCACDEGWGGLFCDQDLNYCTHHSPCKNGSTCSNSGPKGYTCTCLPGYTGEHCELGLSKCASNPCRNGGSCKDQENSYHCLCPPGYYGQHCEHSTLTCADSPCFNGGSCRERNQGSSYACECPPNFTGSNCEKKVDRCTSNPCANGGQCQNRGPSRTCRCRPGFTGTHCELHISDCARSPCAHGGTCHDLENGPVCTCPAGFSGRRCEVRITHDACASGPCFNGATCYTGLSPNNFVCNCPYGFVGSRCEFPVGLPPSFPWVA
# Experiments:
# [1] = target: human Jagged1 ECD-His (Met1-Ser1046) (human, UniProt P78504); assay: BLI
# human Jagged1 ECD-His (Met1-Ser1046), sequence (P78504 1-1046): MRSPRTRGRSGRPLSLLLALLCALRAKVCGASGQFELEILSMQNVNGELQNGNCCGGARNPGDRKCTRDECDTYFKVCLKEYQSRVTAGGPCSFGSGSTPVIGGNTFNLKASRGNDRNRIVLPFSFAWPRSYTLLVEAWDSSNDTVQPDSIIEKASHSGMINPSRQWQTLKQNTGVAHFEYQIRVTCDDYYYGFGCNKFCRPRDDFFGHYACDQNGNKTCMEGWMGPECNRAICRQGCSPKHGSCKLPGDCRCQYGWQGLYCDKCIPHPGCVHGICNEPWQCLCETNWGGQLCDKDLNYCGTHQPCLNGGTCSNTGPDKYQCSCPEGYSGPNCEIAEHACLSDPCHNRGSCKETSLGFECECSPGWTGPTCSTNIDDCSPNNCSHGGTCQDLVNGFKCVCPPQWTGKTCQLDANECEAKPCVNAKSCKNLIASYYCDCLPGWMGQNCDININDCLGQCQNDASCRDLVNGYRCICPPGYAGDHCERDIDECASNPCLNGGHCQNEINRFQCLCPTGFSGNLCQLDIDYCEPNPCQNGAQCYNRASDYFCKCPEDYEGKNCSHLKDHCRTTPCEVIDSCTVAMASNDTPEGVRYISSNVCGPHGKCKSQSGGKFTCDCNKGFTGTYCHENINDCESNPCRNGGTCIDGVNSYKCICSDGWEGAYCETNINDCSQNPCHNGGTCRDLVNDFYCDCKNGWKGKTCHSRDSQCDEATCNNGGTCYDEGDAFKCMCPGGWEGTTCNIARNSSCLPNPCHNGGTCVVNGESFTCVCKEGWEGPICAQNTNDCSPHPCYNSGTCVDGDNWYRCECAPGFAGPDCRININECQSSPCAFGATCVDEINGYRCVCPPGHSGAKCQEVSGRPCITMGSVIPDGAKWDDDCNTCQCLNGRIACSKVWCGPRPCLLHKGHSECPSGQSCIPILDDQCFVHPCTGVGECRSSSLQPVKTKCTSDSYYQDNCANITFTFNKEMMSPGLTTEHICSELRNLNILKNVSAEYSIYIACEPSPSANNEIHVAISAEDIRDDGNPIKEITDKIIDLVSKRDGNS
# [2] = target: T3, human Jagged1 on 293/293T cells (human, UniProt P78504); assay: FACS
# [3] = target: rat Jagged1 on 293T cells (rat, UniProt Q63722); assay: FACS
# [4] = target: T1, murine Jagged1 on 293T cells; assay: FACS
# murine Jagged2-Fc = murine Jagged2-Fc (mouse, UniProt Q9QYE5); assay: ELISA
# murine Jagged2-Fc, sequence (Q9QYE5 24-1082): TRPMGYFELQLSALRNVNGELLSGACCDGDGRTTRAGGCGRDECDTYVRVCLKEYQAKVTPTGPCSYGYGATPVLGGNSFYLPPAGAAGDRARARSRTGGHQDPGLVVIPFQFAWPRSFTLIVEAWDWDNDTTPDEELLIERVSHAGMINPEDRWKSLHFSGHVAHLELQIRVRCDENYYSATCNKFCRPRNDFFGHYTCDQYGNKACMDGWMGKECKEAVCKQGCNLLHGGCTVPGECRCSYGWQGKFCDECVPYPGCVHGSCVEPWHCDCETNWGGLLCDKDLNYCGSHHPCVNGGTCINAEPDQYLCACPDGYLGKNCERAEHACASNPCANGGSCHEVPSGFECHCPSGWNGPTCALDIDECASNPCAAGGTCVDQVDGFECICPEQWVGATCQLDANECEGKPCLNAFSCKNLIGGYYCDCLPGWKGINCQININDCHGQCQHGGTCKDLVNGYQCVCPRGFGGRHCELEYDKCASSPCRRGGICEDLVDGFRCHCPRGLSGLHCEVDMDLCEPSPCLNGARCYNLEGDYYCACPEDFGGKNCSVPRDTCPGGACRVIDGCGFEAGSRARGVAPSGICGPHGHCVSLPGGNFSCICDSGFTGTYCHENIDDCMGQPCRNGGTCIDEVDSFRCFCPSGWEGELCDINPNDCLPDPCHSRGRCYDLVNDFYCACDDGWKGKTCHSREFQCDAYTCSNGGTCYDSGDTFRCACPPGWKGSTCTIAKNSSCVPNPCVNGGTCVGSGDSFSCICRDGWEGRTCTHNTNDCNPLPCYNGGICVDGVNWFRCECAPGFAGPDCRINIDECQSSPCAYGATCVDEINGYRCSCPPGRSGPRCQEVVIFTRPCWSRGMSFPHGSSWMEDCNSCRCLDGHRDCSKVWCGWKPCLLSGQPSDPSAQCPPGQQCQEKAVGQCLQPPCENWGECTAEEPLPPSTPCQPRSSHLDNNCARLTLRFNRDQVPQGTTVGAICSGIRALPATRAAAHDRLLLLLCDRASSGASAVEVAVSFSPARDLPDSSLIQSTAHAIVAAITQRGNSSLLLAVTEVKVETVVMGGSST
# human Jagged1-His = human Jagged1-His (human, UniProt P78504); assay: ELISA
# murine DLL4-His = target: T2, murine DLL4-His; assay: ELISA
# human Jagged2-Fc = human Jagged2-Fc (human, UniProt Q9Y219); assay: ELISA
# human Jagged2-Fc, sequence (Q9Y219 24-1080): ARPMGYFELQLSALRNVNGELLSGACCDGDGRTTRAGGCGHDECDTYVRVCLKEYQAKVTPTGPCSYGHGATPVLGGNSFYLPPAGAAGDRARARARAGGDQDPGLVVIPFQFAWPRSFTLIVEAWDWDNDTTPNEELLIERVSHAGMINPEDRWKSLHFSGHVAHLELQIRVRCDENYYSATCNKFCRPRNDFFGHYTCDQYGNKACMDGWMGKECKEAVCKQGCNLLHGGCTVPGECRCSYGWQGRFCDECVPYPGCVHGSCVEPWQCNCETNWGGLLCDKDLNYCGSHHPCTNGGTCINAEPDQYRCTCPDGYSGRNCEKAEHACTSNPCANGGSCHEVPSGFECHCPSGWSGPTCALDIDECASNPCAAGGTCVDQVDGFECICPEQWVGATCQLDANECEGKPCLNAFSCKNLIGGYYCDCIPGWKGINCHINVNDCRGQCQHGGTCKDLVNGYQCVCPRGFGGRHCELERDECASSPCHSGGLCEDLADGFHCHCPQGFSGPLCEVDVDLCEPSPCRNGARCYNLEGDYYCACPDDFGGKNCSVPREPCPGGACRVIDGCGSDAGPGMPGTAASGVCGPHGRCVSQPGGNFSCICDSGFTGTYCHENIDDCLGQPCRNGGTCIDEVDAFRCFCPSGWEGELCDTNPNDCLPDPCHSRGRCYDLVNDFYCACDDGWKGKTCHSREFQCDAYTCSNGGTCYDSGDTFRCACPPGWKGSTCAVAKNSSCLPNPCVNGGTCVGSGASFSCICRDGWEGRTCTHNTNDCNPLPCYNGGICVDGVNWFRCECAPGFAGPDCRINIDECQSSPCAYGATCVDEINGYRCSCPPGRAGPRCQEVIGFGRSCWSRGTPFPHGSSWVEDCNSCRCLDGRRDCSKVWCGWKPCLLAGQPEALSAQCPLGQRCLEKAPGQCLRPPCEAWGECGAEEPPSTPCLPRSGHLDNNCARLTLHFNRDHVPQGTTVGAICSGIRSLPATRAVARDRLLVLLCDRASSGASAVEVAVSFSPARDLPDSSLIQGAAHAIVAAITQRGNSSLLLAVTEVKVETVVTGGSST
# human DLL4-His = human DLL4-His (human, UniProt Q9NR61); assay: ELISA
# human DLL4-His, sequence (Q9NR61 27-529): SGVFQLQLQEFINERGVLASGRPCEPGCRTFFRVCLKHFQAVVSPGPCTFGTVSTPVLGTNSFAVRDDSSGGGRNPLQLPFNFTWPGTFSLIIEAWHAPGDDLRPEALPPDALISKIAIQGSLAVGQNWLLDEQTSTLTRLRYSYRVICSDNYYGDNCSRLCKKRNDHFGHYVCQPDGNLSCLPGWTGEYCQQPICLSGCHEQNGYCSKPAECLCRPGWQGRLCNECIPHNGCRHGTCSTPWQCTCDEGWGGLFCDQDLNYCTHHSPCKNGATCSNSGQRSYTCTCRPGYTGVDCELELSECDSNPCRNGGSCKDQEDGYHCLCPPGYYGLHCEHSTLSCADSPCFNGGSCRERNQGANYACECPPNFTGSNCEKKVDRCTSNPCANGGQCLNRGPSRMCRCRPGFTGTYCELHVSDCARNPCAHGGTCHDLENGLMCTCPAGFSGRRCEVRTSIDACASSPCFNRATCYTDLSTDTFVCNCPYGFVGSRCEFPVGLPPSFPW
# murine DLL1-His = murine DLL1-His (mouse, UniProt Q61483); assay: ELISA
# murine DLL1-His, sequence (Q61483 18-545): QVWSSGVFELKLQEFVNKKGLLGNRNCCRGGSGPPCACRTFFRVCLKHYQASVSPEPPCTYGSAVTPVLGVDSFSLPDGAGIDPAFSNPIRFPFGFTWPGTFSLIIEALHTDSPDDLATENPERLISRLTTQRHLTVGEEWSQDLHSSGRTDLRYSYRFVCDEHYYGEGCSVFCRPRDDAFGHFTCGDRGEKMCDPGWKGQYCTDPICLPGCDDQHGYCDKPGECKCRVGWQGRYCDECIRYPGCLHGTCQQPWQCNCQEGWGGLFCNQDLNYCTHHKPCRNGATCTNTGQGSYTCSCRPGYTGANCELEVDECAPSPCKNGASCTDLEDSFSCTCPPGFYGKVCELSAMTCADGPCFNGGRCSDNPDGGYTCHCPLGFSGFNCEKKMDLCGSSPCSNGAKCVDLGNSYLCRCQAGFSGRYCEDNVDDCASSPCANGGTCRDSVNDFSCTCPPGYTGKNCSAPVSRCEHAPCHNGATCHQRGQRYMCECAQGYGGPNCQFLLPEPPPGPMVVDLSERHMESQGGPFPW
# human Jagged1-Fc = human Jagged1-Fc (human, UniProt P78504); assay: ELISA
# rat Jagged1-Fc = rat Jagged1-Fc (rat, UniProt Q63722); assay: ELISA
# [5] = target: T3, human Jagged1 on 293/293T cells; assay: KinExA, on-cell
binder,measurement,setting,value
"15D11.1 (antibody, V domains shown) VH: QVTLKESGPVLVKPTETLTLTCTVSGFSLSNAEMGVSWIRQPPGKALEWLAHLFSNDEKSYSTSLKSRLTISKDTSKSQVVLTMTDLDPVDTATYYCARSFNWNYDFDYWGQGTLVTVSS VL: QSALTQPASVSGSPGQSITISCTGTSSAVGGHNFVSWYQQYPGKAPKLMIYEVSNRPSGVSTRFSGSKSGNTASLTISGLQAEDEADYYCSSYTSSSTWVFGGGTRLTVL",Kd,[1],0.614 nM
same,EC50,[2],0.29 nM
same,EC50,[3],0.25 nM
same,EC50,[4],0.36 nM
same,binding result,murine Jagged2-Fc,no binding
same,EC50,human Jagged1-His,0.39 nM
same,binding result,murine DLL4-His,no binding
same,binding result,human Jagged2-Fc,no binding
same,binding result,human DLL4-His,no binding
same,binding result,murine DLL1-His,no binding
same,EC50,human Jagged1-Fc,0.8 nM
same,EC50,rat Jagged1-Fc,0.51 nM
same,Kd,[5],0.125 nM
